Measurements published in patent US20240317854A1 (Merck Sharp & Dohme, published 2024).

Target: T1, human immunoglobulin-like transcript 3 (ILT3) (human, UniProt Q8NHJ6 22-448)
T1 construct: whole, on cells; also called LILRB4; LIR5
Assay: receptor occupancy in blood samples of trial participants dosed in vivo (Q3W)

binding result: binds
B1: Humanized anti-ILT3 mAb (52B8 VH1 M64V/VL5 N34Q) IgG4 S228P/Kappa (antibody, V domains shown)
VH: EVQLVESGGGLVQPGGSLRLSCAASGFTFSNYGMSWVRQAPGKGLEWVATISGGGDYTNYPDSVRGRFTISRDNAKNSLYLQMNSLRAEDTAVYYCGRRLWFRSLYYAMDYWGQGTLVTVSS
VL: DIQLTQSPSSLSASVGDRVTITCRASEKVDSFGQSFMHWYQQKPGKAPKLLIYLTSNLDSGVPSRFSGSGSGTDFTLTISSLQPEDFATYYCQQNNEDPYTFGQGTKLEIKR
notes: also called mAb number 46; mAb No. 46
